Blank lines part the entries; values can stand above or below the substance they belong to.
Tests used:
[1] = molecular target: neonatal Fc receptor (FcRn) on FcRn Affinity Column Gen2 (Roche, Cat #09430857001) (UniProt P55899); test: FcRn-HPLC (Roche FcRn Affinity Column Gen2), pH gradient 5.5 to 8.8 over 90 minutes
[2] = molecular target: human FcγRIIA_131R (CD32a) extracellular domain (human) (UniProt P12318); test: SPR at 25 C (Biacore T200), antibody captured on Protein A chip, FcγR ECD as analyte, steady state; average of 3, SD 0.01
[3] = molecular target: human FcγRIIA_131H (CD32a) extracellular domain (human) (UniProt P12318); test: as above
[4] = molecular target: human FcγRIIIA_158F (CD16a) extracellular domain (human) (UniProt P08637); test: SPR at 25 C (Biacore T200), antibody captured on Protein A chip, FcγR ECD as analyte, steady state; average of 3, SD 0.02
[5] = molecular target: human FcγRI (CD64) extracellular domain (human) (UniProt P12314); test: SPR at 25 C (Biacore T200), antibody captured on Protein A chip, FcγR ECD as analyte; average of 3, SD 1.3
[6] = molecular target: human LEPR, full length, on HEK293-STAT3Luc-hLepR1 cells (Homo sapiens) (UniProt P48357); test: flow cytometry on live HEK293-STAT3Luc-hLepR1 cells, AF647 anti-human IgG; average of 4 runs
[7] = molecular target: cynomolgus monkey LEPR, full length, on HEK293-STAT3Luc-cmLepR2 cells (Macaca fascicularis); test: flow cytometry on live HEK293-STAT3Luc-cmLepR2 cells, AF647 anti-human IgG; average of 4 runs, SD 0, R^2 0.60
[8] = molecular target: human LEPR, full length, on HEK293-STAT3Luc-hLepR1 cells (Homo sapiens) (UniProt P48357); test: cell-based or functional assay
[9] = molecular target: human LEPR, full length, on HEK293-STAT3Luc-hLepR1 cells (Homo sapiens) (UniProt P48357); test: flow cytometry on live HEK293-STAT3Luc-hLepR1 cells, AF647 anti-human IgG; average of 4 runs, SD 331, R^2 0.50
[10] = molecular target: cynomolgus monkey LEPR, full length, on HEK293-STAT3Luc-cmLepR2 cells (Macaca fascicularis); test: flow cytometry on live HEK293-STAT3Luc-cmLepR2 cells, AF647 anti-human IgG; average of 4 runs
[11] = molecular target: neonatal Fc receptor (FcRn) on FcRn Affinity Column Gen2 (Roche, Cat #09430857001) (UniProt P55899); test: FcRn-HPLC (Roche FcRn Affinity Column Gen2), peak width at 50% peak height
[12] = molecular target: Mutant human LEPR-A409E, on HEK293 STAT3-Luciferase reporter cells (human) (UniProt P48357); test: cell-based or functional assay
Sequence of Mutant human LEPR-A409E, on HEK293 STAT3-Luciferase reporter cells (human) (P48357 22-1165 A409E limits assumed): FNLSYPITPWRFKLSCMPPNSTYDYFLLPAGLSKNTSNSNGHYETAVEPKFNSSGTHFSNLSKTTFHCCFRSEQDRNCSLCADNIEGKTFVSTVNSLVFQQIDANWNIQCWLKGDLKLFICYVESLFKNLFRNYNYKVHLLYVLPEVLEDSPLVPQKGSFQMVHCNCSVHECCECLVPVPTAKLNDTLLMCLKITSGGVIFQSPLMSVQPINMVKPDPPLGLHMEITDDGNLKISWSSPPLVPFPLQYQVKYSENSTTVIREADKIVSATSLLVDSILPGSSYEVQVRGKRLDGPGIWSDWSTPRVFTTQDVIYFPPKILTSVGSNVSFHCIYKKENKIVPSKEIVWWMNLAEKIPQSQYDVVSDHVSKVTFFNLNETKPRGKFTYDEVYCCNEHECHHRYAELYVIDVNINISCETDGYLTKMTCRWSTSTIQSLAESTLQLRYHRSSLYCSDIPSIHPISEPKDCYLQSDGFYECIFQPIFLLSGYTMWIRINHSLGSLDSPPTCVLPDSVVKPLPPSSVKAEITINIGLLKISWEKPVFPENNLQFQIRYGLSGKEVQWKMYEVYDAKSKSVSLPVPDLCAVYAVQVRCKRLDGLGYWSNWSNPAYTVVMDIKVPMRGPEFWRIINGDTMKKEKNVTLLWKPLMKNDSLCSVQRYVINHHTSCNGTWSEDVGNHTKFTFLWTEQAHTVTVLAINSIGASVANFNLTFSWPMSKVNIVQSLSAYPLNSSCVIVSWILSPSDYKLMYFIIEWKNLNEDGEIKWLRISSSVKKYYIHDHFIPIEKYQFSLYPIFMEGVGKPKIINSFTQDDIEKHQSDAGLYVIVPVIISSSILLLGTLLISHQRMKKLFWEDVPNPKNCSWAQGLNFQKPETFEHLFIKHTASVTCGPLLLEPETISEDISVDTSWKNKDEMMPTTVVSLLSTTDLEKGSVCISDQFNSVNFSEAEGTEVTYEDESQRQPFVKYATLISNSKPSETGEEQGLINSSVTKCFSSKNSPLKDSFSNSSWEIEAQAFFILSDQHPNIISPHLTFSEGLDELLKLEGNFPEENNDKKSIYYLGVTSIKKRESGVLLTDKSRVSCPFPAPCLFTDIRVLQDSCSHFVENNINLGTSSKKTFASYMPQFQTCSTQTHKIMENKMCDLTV

Sequence of human LEPR, full length, on HEK293-STAT3Luc-hLepR1 cells (Homo sapiens) (P48357 22-1165 limits assumed): as the sequence (P48357 22-1165 A409E limits assumed) above, with E388A counted along it
Sequence of human FcγRIIA_131H (CD32a) extracellular domain (human) (P12318 34-217): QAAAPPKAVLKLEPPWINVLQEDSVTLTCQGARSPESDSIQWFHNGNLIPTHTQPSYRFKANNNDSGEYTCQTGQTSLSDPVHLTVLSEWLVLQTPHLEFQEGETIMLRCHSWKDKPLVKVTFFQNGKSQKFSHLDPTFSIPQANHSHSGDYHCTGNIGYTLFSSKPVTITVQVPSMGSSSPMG
Sequence of human FcγRIIIA_158F (CD16a) extracellular domain (human) (P08637 17-208): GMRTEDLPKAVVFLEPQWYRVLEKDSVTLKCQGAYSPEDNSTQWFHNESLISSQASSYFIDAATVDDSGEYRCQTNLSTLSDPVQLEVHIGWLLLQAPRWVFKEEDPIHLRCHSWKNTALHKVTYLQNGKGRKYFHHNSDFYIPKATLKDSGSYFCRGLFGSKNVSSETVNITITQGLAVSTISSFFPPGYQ
Sequence of human FcγRIIA_131R (CD32a) extracellular domain (human) (P12318 34-217 H167R): as the sequence (P12318 34-217) above, with H134R counted along it
Sequence of human FcγRI (CD64) extracellular domain (human) (P12314 16-292): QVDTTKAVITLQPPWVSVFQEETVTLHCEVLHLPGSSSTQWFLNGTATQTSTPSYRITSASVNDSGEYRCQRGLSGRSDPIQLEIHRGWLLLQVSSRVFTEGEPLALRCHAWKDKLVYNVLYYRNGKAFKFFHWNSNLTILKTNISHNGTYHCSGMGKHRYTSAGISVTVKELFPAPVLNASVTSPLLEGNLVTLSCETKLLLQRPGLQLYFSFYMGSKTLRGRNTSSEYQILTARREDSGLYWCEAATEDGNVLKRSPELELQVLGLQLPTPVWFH

Substance: Briakinumab (antibody)
Retention Time [1]: 88.9 min

Substance: recombinant human leptin protein (SEQ ID NO:27) (from UniProt P41159 22-167) (ligand)
Maximum RLU, pERK1/2 AlphaLISA (baseline 29762.5) [8]: 138000 RLU
Top (RLU), STAT3-luciferase reporter (projected by the fitting software) [12]: 259000 RLU

Now from value to substance:

Kd [2]: 530 nM
Kd [3]: 520 nM
Kd [4]: 860 nM
Kd [5]: 0.0619 nM
Substance: IgG1 positive control (antibody)

Bottom (gMFI) [6]: 148 gMFI
Top (gMFI) [6]: 293 gMFI
EC50 [7]: 727 nM
Maximum RLU, pERK1/2 AlphaLISA (baseline 29762.5) [8]: 27300 RLU
EC50 [9]: 409 nM
Bottom (gMFI) [10]: 69 gMFI
Top (gMFI) [10]: 131 gMFI
Substance: IgG Isotype control (antibody)

Peak Width [11]: 1.9 min
Retention Time [1]: 69.4 min
Substance: Ustekinumab (antibody)

Reference: patent publication US20250289897A1, “LEPTIN RECEPTOR AGONISTIC ANTIBODY AS MONO OR COMBO THERAPIES TO TREAT OBESITY” (ELI LILLY AND COMPANY, priority 2024, published 2025)
